Measurements: the supplement of paper PMC10065799, “High-throughput profiling of sequence recognition by tyrosine kinases and SH2 domains using bacterial peptide display” (eLife, 2023)

Target: FGFR1 (UniProt P11362)
Assay: phosphorylation enrichment, bacterial display (enrichment ratio); higher = better substrate or ligand; peptides without Tyr show the background
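Also: 11-residue human phosphosite peptides and single-mutation variants displayed on the E. coli surface, counted by deep sequencing, each peptide's frequency after selection divided by its frequency in the unselected input library; frequency after pTyr selection over input frequency; kinase dosed for 20-30% of maximal phosphorylation in three min.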

FGFR1, sequence (P11362 whole entry, looked up): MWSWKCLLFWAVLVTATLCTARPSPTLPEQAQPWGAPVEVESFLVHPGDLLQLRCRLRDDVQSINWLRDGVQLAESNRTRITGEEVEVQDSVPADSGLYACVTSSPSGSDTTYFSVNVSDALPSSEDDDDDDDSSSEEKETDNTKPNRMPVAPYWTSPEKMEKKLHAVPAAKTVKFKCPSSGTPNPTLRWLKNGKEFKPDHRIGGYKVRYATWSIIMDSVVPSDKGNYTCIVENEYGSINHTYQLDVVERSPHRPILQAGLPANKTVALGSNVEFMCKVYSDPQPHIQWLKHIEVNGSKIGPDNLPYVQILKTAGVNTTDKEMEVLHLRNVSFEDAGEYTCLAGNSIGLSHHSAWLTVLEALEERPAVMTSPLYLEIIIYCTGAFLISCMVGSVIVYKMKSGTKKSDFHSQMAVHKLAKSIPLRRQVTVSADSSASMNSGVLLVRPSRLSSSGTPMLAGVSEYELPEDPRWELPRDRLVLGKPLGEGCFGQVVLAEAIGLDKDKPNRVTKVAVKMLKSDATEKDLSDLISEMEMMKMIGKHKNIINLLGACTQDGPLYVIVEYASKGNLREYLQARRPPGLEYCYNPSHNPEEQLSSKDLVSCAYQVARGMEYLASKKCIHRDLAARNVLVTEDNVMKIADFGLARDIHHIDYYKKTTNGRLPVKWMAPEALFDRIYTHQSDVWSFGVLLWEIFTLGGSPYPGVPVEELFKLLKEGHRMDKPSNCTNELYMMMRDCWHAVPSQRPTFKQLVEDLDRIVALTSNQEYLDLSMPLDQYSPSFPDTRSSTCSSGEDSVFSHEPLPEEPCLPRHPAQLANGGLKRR

Row | Sequence | phosphorylation enrichment
1 | IRKVLYANNVM [ACTA1_Y296_D294V] | 0.567
2 | LERFIYNRQEF [HLA-DPB1_Y59_E62Q_YF] | 0.491
3 | ATDLAYFLVRK [ASL_Y375_YF] | 1.26
4 | QRRLIYRCQVG [NR2E3_Y81_R76Q] | 0.579
5 | ARRMEYLASQK [FGFR2_Y616_G613R] | 0.372
6 | SDYYAYSPVRE [H6PD_Y449] | 16.3
7 | SHMVNYQPYRK [TEX37_Y25_D24N] | 0.394
8 | GEDLSYGDVPP [IRS1_Y151] | 0.588
9 | VLRRVYVDFEG [KMT2B_Y1707] | 0.478
10 | MFRAGYDTKQE [F10_Y407_C404R] | 0.379
11 | DSSIRYLQEIY [FGG_Y135] | 0.59
12 | PLDGEYFTLRI [TP53_Y327_Q331R] | 6.1
13 | HRGCLYLAIEF [TEK_Y899_Y897C_YF] | 0.667
14 | LESILYESSVV [TRPV4_Y91_T89I] | 0.725
15 | IGVGSYSVCKR [RPS6KA3_Y433] | 0.354
16 | LPKVSYMKAID [GLRA1_Y307_V308M] | 0.481
17 | PPPELYFVKVD [TERT_Y707] | 0.638

Row | Sequence | phosphorylation enrichment
18 | YYSSEYHCVGG [CTSC_Y345_Y347C] | 11.5
19 | DKMEAYNINET [TEKT4_Y210_D213N] | 0.481
20 | NRLTDYFEPLL [BBS10_Y536_YF] | 6.99
21 | KENITYMKSEQ [L1TD1_Y24_R27S] | 0.456
22 | QLLIEYPPEEV [ZZZ3_Y670_K669E] | 0.659
23 | MRAIIYNSSTA [PLEKHA7_Y243_L241I] | 0.554
24 | LQRVQCDLQKA [DSP_Y1512_Y1512C] | 1.06
25 | RLLVVYPWNQR [HBB_Y36_T39N] | 0.557
26 | CLRIDYERVSQ [DSP_Y1542_R1537C] | 0.574
27 | SSSGGYGGGFG [KRT19_Y61_A60G_YF] | 0.32
28 | LVMFFYAIFGM [SCN1A_Y1684_I1683F] | 0.898
29 | KELAPYDENWF [RPS19_Y48] | 0.563
30 | ESPGLCGFLNV [BCR_Y910_Y910C] | 0.557
31 | CSRRFYQLTKL [AR_Y858] | 0.455
32 | QRRNVYFFSFL [PTEN_Y176_Y174N_YF] | 0.562
33 | LGKLIYPVGFW [NTHL1_Y177] | 0.816

Test system: c-Src
Assay: as above

Row | Sequence | phosphorylation enrichment
34 | IRKVLYANNVM [ACTA1_Y296_D294V] | 0.325
35 | LERFIYNRQEF [HLA-DPB1_Y59_E62Q_YF] | 0.859
36 | ATDLAYFLVRK [ASL_Y375_YF] | 0.728
37 | QRRLIYRCQVG [NR2E3_Y81_R76Q] | 0.569
38 | ARRMEYLASQK [FGFR2_Y616_G613R] | 0.382
39 | SDYYAYSPVRE [H6PD_Y449] | 7.18
40 | SHMVNYQPYRK [TEX37_Y25_D24N] | 0.401
41 | GEDLSYGDVPP [IRS1_Y151] | 0.482
42 | VLRRVYVDFEG [KMT2B_Y1707] | 0.602
43 | MFRAGYDTKQE [F10_Y407_C404R] | 0.332
44 | DSSIRYLQEIY [FGG_Y135] | 1.14
45 | PLDGEYFTLRI [TP53_Y327_Q331R] | 3.13
46 | HRGCLYLAIEF [TEK_Y899_Y897C_YF] | 0.49
47 | LESILYESSVV [TRPV4_Y91_T89I] | 1.14
48 | IGVGSYSVCKR [RPS6KA3_Y433] | 0.362
49 | LPKVSYMKAID [GLRA1_Y307_V308M] | 0.574
50 | PPPELYFVKVD [TERT_Y707] | 1.55

Row | Sequence | phosphorylation enrichment
51 | YYSSEYHCVGG [CTSC_Y345_Y347C] | 3.66
52 | DKMEAYNINET [TEKT4_Y210_D213N] | 0.577
53 | NRLTDYFEPLL [BBS10_Y536_YF] | 0.406
54 | KENITYMKSEQ [L1TD1_Y24_R27S] | 0.425
55 | QLLIEYPPEEV [ZZZ3_Y670_K669E] | 0.44
56 | MRAIIYNSSTA [PLEKHA7_Y243_L241I] | 0.447
57 | LQRVQCDLQKA [DSP_Y1512_Y1512C] | 0.709
58 | RLLVVYPWNQR [HBB_Y36_T39N] | 0.351
59 | CLRIDYERVSQ [DSP_Y1542_R1537C] | 0.517
60 | SSSGGYGGGFG [KRT19_Y61_A60G_YF] | 0.356
61 | LVMFFYAIFGM [SCN1A_Y1684_I1683F] | 0.524
62 | KELAPYDENWF [RPS19_Y48] | 0.458
63 | ESPGLCGFLNV [BCR_Y910_Y910C] | 0.453
64 | CSRRFYQLTKL [AR_Y858] | 0.527
65 | QRRNVYFFSFL [PTEN_Y176_Y174N_YF] | 0.67
66 | LGKLIYPVGFW [NTHL1_Y177] | 1.35
